Assay results from patent US20220378923A1, “BET DEGRADER” (KYOWA KIRIN CO., LTD., priority 2019, published 2022).

Experiments:
[1] = molecular target: DCAF16 with HaloTag added to the C-terminal (expressed from plasmid pFC27K_DCAF16) (human) (UniProt Q9NXF7); experiment: NanoBRET in HEK293 cells, Nluc-BRD2 and DCAF16-HaloTag with 618 Ligand, MLN4924; 1.0 umol/L compound 6k
[2] = molecular target: DCAF16 with HaloTag added to the C-terminal (expressed from plasmid pFC27K_DCAF16) (human) (UniProt Q9NXF7); experiment: NanoBRET in HEK293 cells, Nluc-BRD2 and DCAF16-HaloTag with 618 Ligand, MLN4924; 1.0 umol/L compound 8j
[3] = molecular target: DCAF16 with HaloTag added to the C-terminal (expressed from plasmid pFC27K_DCAF16) (human) (UniProt Q9NXF7); experiment: NanoBRET in HEK293 cells, Nluc-BRD2 and DCAF16-HaloTag with 618 Ligand, MLN4924; 1.0 umol/L compound 1l
[4] = molecular target: DCAF16 with HaloTag added to the C-terminal (expressed from plasmid pFC27K_DCAF16) (human) (UniProt Q9NXF7); experiment: NanoBRET in HEK293 cells, Nluc-BRD2 and DCAF16-HaloTag with 618 Ligand, MLN4924; 1.0 umol/L compound 1h
[5] = molecular target: DCAF16 with HaloTag added to the C-terminal (expressed from plasmid pFC27K_DCAF16) (human) (UniProt Q9NXF7); experiment: NanoBRET in HEK293 cells, Nluc-BRD2 and DCAF16-HaloTag with 618 Ligand, bortezomib; 10 umol/L compound 8j; mean of n=3
[6] = molecular target: DCAF16 with HaloTag added to the C-terminal (expressed from plasmid pFC27K_DCAF16) (human) (UniProt Q9NXF7); experiment: NanoBRET in HEK293 cells, Nluc-BRD2 and DCAF16-HaloTag with 618 Ligand, bortezomib; 10 umol/L compound 7o; mean of n=3
[7] = molecular target: DCAF16 with HaloTag added to the C-terminal (expressed from plasmid pFC27K_DCAF16) (human) (UniProt Q9NXF7); experiment: NanoBRET in HEK293 cells, Nluc-BRD2 and DCAF16-HaloTag with 618 Ligand, MLN4924; 1.0 umol/L compound 15a
[8] = molecular target: DCAF16 with HaloTag added to the C-terminal (expressed from plasmid pFC27K_DCAF16) (human) (UniProt Q9NXF7); experiment: NanoBRET in HEK293 cells, Nluc-BRD2 and DCAF16-HaloTag with 618 Ligand, MLN4924; 1.0 umol/L compound 12c
[9] = molecular target: DCAF16 with HaloTag added to the C-terminal (expressed from plasmid pFC27K_DCAF16) (human) (UniProt Q9NXF7); experiment: NanoBRET in HEK293 cells, Nluc-BRD2 and DCAF16-HaloTag with 618 Ligand, bortezomib; 10 umol/L compound 15f; mean of n=3
[10] = molecular target: DCAF16 with HaloTag added to the C-terminal (expressed from plasmid pFC27K_DCAF16) (human) (UniProt Q9NXF7); experiment: NanoBRET in HEK293 cells, Nluc-BRD2 and DCAF16-HaloTag with 618 Ligand, MLN4924; 1.0 umol/L compound 15f
[11] = molecular target: DCAF16 with HaloTag added to the C-terminal (expressed from plasmid pFC27K_DCAF16) (human) (UniProt Q9NXF7); experiment: NanoBRET in HEK293 cells, Nluc-BRD2 and DCAF16-HaloTag with 618 Ligand, bortezomib; 10 umol/L compound 7p; mean of n=3
[12] = molecular target: DCAF16 with HaloTag added to the C-terminal (expressed from plasmid pFC27K_DCAF16) (human) (UniProt Q9NXF7); experiment: NanoBRET in HEK293 cells, Nluc-BRD2 and DCAF16-HaloTag with 618 Ligand, bortezomib; 10 umol/L compound 3a; mean of n=3
[13] = molecular target: DCAF16 with HaloTag added to the C-terminal (expressed from plasmid pFC27K_DCAF16) (human) (UniProt Q9NXF7); experiment: NanoBRET in HEK293 cells, Nluc-BRD2 and DCAF16-HaloTag with 618 Ligand, bortezomib; 10 umol/L compound 8a; mean of n=3
[14] = molecular target: DCAF16 with HaloTag added to the C-terminal (expressed from plasmid pFC27K_DCAF16) (human) (UniProt Q9NXF7); experiment: NanoBRET in HEK293 cells, Nluc-BRD2 and DCAF16-HaloTag with 618 Ligand, bortezomib; 10 umol/L compound 6k; mean of n=3
[15] = molecular target: DCAF16 with HaloTag added to the C-terminal (expressed from plasmid pFC27K_DCAF16) (human) (UniProt Q9NXF7); experiment: NanoBRET in HEK293 cells, Nluc-BRD2 and DCAF16-HaloTag with 618 Ligand, MLN4924; 1.0 umol/L compound 7o
[16] = molecular target: DCAF16 with HaloTag added to the C-terminal (expressed from plasmid pFC27K_DCAF16) (human) (UniProt Q9NXF7); experiment: NanoBRET in HEK293 cells, Nluc-BRD2 and DCAF16-HaloTag with 618 Ligand, MLN4924; 1.0 umol/L compound 3a
[17] = molecular target: DCAF16 with HaloTag added to the C-terminal (expressed from plasmid pFC27K_DCAF16) (human) (UniProt Q9NXF7); experiment: NanoBRET in HEK293 cells, Nluc-BRD2 and DCAF16-HaloTag with 618 Ligand, bortezomib; DMSO control without test compound; mean of n=3
[18] = molecular target: DCAF16 with HaloTag added to the C-terminal (expressed from plasmid pFC27K_DCAF16) (human) (UniProt Q9NXF7); experiment: NanoBRET in HEK293 cells, Nluc-BRD2 and DCAF16-HaloTag with 618 Ligand, MLN4924; 1.0 umol/L comparative compound 1 (compound P3, known bivalent BET inhibitor)
[19] = molecular target: DCAF16 with HaloTag added to the C-terminal (expressed from plasmid pFC27K_DCAF16) (human) (UniProt Q9NXF7); experiment: NanoBRET in HEK293 cells, Nluc-BRD2 and DCAF16-HaloTag with 618 Ligand, bortezomib; 10 umol/L compound 3b; mean of n=3
[20] = molecular target: DCAF16 with HaloTag added to the C-terminal (expressed from plasmid pFC27K_DCAF16) (human) (UniProt Q9NXF7); experiment: NanoBRET in HEK293 cells, Nluc-BRD2 and DCAF16-HaloTag with 618 Ligand, MLN4924; 1.0 umol/L compound 3e
[21] = molecular target: DCAF16 with HaloTag added to the C-terminal (expressed from plasmid pFC27K_DCAF16) (human) (UniProt Q9NXF7); experiment: NanoBRET in HEK293 cells, Nluc-BRD2 and DCAF16-HaloTag with 618 Ligand, bortezomib; 10 umol/L compound 1l; mean of n=3
[22] = molecular target: DCAF16 with HaloTag added to the C-terminal (expressed from plasmid pFC27K_DCAF16) (human) (UniProt Q9NXF7); experiment: NanoBRET in HEK293 cells, Nluc-BRD2 and DCAF16-HaloTag with 618 Ligand, bortezomib; 10 umol/L compound 15a; mean of n=3
[23] = molecular target: DCAF16 with HaloTag added to the C-terminal (expressed from plasmid pFC27K_DCAF16) (human) (UniProt Q9NXF7); experiment: NanoBRET in HEK293 cells, Nluc-BRD2 and DCAF16-HaloTag with 618 Ligand, bortezomib; 10 umol/L compound 1h; mean of n=3
[24] = molecular target: DCAF16 with HaloTag added to the C-terminal (expressed from plasmid pFC27K_DCAF16) (human) (UniProt Q9NXF7); experiment: NanoBRET in HEK293 cells, Nluc-BRD2 and DCAF16-HaloTag with 618 Ligand, MLN4924; 1.0 umol/L compound 8a
[25] = molecular target: DCAF16 with HaloTag added to the C-terminal (expressed from plasmid pFC27K_DCAF16) (human) (UniProt Q9NXF7); experiment: NanoBRET in HEK293 cells, Nluc-BRD2 and DCAF16-HaloTag with 618 Ligand, MLN4924; DMSO control without test compound
[26] = molecular target: DCAF16 with HaloTag added to the C-terminal (expressed from plasmid pFC27K_DCAF16) (human) (UniProt Q9NXF7); experiment: NanoBRET in HEK293 cells, Nluc-BRD2 and DCAF16-HaloTag with 618 Ligand, MLN4924; 1.0 umol/L compound 3b
[27] = molecular target: DCAF16 with HaloTag added to the C-terminal (expressed from plasmid pFC27K_DCAF16) (human) (UniProt Q9NXF7); experiment: NanoBRET in HEK293 cells, Nluc-BRD2 and DCAF16-HaloTag with 618 Ligand, MLN4924; 1.0 umol/L compound 7p
[28] = molecular target: DCAF16 with HaloTag added to the C-terminal (expressed from plasmid pFC27K_DCAF16) (human) (UniProt Q9NXF7); experiment: NanoBRET in HEK293 cells, Nluc-BRD2 and DCAF16-HaloTag with 618 Ligand, bortezomib; 10 umol/L compound 12c; mean of n=3
[29] = molecular target: DCAF16 with HaloTag added to the C-terminal (expressed from plasmid pFC27K_DCAF16) (human) (UniProt Q9NXF7); experiment: NanoBRET in HEK293 cells, Nluc-BRD2 and DCAF16-HaloTag with 618 Ligand, bortezomib; 10 umol/L compound 3e; mean of n=3

Chain of DCAF16 with HaloTag added to the C-terminal (expressed from plasmid pFC27K_DCAF16) (human) (Q9NXF7 whole entry): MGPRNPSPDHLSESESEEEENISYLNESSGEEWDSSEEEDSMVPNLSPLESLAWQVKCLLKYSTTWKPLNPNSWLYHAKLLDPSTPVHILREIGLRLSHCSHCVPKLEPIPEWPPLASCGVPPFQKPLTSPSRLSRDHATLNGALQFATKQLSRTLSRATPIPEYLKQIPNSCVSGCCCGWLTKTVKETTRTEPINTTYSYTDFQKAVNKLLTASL

BRET Ratio [1]: 12.6
BRET Ratio [2]: 11.9
BRET Ratio [3]: 14.9
BRET Ratio [4]: 10.9
BRET Ratio [5]: 7.07
BRET Ratio [6]: 6.69
BRET Ratio [7]: 9.59
BRET Ratio [8]: 13.2
BRET Ratio [9]: 5.99
BRET Ratio [10]: 12.4
BRET Ratio [11]: 6.8
BRET Ratio [12]: 8.51
BRET Ratio [13]: 7.27
BRET Ratio [14]: 7.07
BRET Ratio [15]: 13
BRET Ratio [16]: 14.5
BRET Ratio [17]: 1.51
BRET Ratio [18]: 1.93
BRET Ratio [19]: 6.06
BRET Ratio [20]: 9.58
BRET Ratio [21]: 8.03
BRET Ratio [22]: 5.88
BRET Ratio [23]: 6.84
BRET Ratio [24]: 12.4
BRET Ratio [25]: 0.99
BRET Ratio [26]: 9.69
BRET Ratio [27]: 11.6
BRET Ratio [28]: 7.6
BRET Ratio [29]: 5.96
Substance: BRD2 with an Nluc tag added to the N-terminal (expressed from plasmid pFN31A_BRD2) (from UniProt P25440 1-801)
